Reference: article PMC9288159, “Identification of a guanine-specific pocket in the protein N of SARS-CoV-2”

Biological target: SARS-CoV-2 N protein C-terminal domain (NCTD) (SARS-CoV-2, UniProt P0DTC9 256-364)
Assay: EMSA; […]; binding buffer not stated ([…]
Settings: protein: recombinant; tags: N-terminal His6-TEV site (pET28a); chain copies: 2; label: 5' IRDye-800CW

Q: CGGUUUCUCCG (ssRNA) [Oligo-U (SL5a G to U)] was tested. Which Kd did it give?
A: 140 ± 29 nM
